Target: EYFP-RyR1 (full-length rabbit type 1 ryanodine receptor), expressed in RyR1/RyR3 double-null (R1R3) myotubes (rabbit) (UniProt P11716)
Assay: FRET or BRET

Chain of EYFP-RyR1 (full-length rabbit type 1 ryanodine receptor), expressed in RyR1/RyR3 double-null (R1R3) myotubes, P11716 1-5037 (natural protein) (P11716 whole entry): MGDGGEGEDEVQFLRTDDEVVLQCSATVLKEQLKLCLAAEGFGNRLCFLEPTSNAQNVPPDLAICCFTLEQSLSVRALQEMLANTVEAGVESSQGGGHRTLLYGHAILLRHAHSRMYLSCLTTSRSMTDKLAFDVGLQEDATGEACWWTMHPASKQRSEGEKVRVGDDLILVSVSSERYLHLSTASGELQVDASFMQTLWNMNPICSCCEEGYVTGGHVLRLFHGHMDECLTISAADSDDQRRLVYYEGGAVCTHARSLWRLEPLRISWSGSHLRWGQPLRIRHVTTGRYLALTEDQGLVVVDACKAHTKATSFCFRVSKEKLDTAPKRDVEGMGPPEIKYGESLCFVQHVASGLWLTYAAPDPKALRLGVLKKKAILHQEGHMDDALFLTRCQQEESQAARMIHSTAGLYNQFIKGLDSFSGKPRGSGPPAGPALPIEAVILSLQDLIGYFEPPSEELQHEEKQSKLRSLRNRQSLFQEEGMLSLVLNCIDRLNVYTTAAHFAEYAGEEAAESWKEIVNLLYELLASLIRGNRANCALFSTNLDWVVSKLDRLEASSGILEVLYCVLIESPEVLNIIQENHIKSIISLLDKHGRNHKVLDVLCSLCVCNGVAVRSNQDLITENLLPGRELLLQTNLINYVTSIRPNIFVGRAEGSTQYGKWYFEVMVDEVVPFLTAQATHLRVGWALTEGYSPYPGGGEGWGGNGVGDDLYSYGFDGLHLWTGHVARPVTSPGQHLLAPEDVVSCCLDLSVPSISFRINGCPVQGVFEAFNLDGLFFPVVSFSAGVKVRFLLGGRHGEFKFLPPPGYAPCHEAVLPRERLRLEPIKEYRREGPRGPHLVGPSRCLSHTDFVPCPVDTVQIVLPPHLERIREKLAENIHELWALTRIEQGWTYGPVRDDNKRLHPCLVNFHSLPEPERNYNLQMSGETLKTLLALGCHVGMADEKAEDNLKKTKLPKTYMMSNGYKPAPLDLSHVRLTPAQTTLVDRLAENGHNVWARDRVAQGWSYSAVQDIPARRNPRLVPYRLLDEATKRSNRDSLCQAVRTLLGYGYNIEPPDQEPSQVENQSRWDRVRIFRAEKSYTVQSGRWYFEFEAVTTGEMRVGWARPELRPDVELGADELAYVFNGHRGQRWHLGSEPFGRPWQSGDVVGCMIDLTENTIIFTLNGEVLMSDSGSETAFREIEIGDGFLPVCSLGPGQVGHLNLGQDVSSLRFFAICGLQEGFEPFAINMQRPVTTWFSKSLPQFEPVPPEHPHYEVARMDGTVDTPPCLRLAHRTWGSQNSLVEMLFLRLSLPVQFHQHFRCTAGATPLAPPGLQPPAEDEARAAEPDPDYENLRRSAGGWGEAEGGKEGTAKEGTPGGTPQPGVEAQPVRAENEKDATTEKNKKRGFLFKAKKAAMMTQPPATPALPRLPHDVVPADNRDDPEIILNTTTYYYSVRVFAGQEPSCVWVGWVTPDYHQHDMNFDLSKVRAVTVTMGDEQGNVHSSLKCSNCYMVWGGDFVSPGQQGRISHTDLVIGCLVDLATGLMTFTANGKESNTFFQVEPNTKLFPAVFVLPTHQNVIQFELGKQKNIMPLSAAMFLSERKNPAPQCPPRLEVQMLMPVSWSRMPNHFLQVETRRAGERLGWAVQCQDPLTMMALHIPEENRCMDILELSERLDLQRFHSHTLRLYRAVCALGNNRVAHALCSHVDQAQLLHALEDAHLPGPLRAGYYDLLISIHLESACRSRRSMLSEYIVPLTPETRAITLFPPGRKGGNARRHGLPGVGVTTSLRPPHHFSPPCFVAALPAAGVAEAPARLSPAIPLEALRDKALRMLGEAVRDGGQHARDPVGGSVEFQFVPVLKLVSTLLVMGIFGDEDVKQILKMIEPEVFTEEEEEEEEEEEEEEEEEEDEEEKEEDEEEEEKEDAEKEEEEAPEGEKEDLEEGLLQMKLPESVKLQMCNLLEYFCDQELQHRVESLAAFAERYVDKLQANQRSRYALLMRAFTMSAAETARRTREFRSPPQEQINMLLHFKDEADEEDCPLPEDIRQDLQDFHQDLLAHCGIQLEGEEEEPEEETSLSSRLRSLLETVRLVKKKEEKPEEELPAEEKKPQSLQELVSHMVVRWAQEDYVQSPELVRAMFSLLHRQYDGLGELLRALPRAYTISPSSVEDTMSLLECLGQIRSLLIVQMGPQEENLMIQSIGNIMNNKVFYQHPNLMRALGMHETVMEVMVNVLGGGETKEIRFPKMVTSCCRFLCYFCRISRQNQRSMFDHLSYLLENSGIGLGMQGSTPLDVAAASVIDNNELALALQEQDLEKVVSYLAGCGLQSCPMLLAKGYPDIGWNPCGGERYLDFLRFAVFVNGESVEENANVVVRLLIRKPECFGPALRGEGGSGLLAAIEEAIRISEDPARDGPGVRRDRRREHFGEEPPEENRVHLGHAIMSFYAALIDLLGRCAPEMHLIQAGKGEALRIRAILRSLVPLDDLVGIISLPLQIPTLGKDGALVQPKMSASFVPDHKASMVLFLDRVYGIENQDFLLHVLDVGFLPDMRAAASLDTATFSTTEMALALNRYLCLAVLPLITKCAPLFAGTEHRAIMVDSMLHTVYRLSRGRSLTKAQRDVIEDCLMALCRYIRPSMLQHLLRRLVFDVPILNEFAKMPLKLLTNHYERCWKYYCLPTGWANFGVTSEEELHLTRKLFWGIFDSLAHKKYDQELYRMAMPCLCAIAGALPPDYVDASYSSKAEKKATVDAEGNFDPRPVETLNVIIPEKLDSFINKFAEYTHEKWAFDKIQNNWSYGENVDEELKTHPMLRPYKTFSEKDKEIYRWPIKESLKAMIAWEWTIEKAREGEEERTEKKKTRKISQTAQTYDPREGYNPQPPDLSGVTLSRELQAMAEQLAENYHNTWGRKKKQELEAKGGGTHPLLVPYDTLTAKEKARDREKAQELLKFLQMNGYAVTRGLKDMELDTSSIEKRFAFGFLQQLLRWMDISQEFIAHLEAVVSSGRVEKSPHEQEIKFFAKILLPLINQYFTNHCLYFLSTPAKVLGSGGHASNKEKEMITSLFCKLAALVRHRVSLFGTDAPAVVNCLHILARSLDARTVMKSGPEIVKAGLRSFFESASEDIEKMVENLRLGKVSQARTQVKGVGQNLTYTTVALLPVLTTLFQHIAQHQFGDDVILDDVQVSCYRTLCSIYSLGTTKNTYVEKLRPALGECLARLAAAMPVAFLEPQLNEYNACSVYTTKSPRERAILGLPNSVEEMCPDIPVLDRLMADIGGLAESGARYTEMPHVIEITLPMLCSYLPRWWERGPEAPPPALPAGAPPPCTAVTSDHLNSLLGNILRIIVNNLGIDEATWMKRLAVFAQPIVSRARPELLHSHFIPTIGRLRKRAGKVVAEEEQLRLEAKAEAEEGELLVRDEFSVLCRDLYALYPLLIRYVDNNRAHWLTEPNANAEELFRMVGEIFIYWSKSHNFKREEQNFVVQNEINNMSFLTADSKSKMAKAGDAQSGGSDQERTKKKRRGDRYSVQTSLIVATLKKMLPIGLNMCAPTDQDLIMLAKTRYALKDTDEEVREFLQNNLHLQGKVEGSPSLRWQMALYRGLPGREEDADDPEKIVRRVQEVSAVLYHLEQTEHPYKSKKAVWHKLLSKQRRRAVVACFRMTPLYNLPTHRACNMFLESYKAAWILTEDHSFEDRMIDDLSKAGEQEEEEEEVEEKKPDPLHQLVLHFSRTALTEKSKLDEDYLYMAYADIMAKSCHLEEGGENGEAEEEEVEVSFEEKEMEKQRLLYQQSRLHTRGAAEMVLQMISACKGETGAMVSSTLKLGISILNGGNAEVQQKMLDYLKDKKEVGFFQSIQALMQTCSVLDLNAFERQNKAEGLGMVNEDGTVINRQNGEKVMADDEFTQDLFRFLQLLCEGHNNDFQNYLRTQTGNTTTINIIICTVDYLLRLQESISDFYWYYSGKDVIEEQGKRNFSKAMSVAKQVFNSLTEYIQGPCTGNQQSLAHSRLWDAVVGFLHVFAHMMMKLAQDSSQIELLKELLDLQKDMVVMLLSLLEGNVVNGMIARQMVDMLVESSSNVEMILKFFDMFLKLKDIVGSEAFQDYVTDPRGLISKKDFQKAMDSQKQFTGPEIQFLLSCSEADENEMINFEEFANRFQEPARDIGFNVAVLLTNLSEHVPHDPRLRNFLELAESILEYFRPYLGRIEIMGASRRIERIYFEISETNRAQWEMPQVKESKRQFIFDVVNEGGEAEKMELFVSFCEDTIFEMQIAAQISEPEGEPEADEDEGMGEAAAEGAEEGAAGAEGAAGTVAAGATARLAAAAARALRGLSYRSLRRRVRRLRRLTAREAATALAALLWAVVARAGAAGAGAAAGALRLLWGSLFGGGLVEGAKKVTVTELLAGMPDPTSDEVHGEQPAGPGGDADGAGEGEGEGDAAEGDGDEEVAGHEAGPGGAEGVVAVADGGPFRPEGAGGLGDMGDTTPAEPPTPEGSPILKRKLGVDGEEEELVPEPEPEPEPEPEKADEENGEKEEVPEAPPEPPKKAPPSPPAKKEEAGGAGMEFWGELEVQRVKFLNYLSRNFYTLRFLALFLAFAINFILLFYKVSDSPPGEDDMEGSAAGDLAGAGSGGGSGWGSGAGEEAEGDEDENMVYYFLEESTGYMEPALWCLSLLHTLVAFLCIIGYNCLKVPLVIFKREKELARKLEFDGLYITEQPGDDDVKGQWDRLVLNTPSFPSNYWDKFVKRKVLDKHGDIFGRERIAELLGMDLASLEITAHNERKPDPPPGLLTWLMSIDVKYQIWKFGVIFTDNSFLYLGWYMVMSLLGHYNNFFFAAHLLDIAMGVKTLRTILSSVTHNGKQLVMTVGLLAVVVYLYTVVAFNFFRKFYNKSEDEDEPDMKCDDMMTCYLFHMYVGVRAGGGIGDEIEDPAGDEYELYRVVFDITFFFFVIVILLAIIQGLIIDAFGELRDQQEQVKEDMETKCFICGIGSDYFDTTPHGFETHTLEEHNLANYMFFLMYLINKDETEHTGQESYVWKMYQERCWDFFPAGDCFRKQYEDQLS

FRET efficiency: 8.6%
Substance: EYFP-RyR1 (full-length rabbit type 1 ryanodine receptor), expressed in RyR1/RyR3 double-null (R1R3) myotubes, P11716 1-5037 (natural protein)

Reference: paper PMC5806685
